Earlier results, collected in article PMC5996525.

Molecular target: CTLA-4 (Homo sapiens) (UniProt P16410)
Assay: SPR

Chain of UniProt P16410 (P16410 36-161): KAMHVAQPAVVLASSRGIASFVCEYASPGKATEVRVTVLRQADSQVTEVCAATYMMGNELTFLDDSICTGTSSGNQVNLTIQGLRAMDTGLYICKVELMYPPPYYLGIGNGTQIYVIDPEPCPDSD

- Kd: 5.89 nM
Substance: tremelimumab
